Results reported in article PMC4749091 (The Journal of Experimental Medicine, 2016).

Target: T1, human CD112-Fc fusion protein (human, UniProt Q92692 32-360)
T1 sequence (looked up): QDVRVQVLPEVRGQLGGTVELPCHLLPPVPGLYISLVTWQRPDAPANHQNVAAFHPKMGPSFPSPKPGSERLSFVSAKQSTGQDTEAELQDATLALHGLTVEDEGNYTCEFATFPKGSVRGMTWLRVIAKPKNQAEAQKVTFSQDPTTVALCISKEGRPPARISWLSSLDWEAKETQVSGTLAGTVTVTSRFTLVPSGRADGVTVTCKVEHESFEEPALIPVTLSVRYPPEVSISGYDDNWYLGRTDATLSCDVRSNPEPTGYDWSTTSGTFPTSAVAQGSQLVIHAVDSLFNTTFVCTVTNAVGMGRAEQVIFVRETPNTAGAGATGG
Assay: competition by flow cytometry on protein-coated beads

binding result: binds
B1: human CD226-Fc fusion protein (Fc fusion, UniProt Q15762 19-254, looked up)
chain: EEVLWHTSVPFAENMSLECVYPSMGILTQVEWFKIGTQQDSIAIFSPTHGMVIRKPYAERVYFLNSTMASNNMTLFFRNASEDDVGYYSCSLYTYPQGTWQKVIQVVQSDSFEAAVPSNSHIVSEPGKNVTLTCQPQMTWPVQAVRWEKIQPRQIDLLTYCNLVHGRNFTSKFPRQIVSNCSHGRWSVIVIPDVTVSDSGLYRCYLQASAGENETFVMRLTVAEGKTDNQYTLFVA
